How the values were obtained:
[1] = target: Human folate receptor alpha-1 (FOLR1) on ovarian cancer cells (human, UniProt P15328 25-234); assay: cell-based or functional assay
[2] = target: Human death receptor 5 (DR5/TRAIL-R2) on cancer cells (human, UniProt O14763 56-440); assay: cell-based or functional assay
[3] = target: T1, Recombinant DR5 (rDR5), extracellular domain of DR5/TRAIL-R2 fused to IgG4-Fc; assay: ELISA on coated rDR5-IgG4-Fc (FIG. 12D)
T1 construct: It was biotinylated for BLI; also called rDR5-IgG4; DR5-Fc
Method: (D) IgG4-Fc tagged rDR5 receptor was coated in 96 well plates overnight.
Binding specificity and affinity of various described IgG1 subclasses were determined by ELISA using the recombinant extracellular domain of FOLR1 and/or DR5/TRAIL-R2. For coating 96-well ELISA plates (Olympus), the protein solutions (2 μg/ml) were prepared in coating buffer (100 mM Sodium Bicarbonate pH 9.2) and 100 μl was distributed in each well. The plates were then incubated overnight at 4° C. Next day, the unbound areas were blocked by cell culture media containing 10% FBS, 1% BSA and 0.5% sodium azide for 2 hr at room temperature. […] After washing with PBS solution containing 0.1% Tween20, the plates were incubated for 1 hr with horseradish peroxidase (HRP) conjugated anti-human IgG1 (Thermo Scientific, A10648). Detection was performed using a two-component peroxidase substrate kit (BD biosciences) and the reaction was stopped with the addition of 2 N Sulfuric acid. Absorbance at 450 nm was immediately recorded using a Synergy Spectrophotometer (BioTech), and background absorbance from negative control samples was subtracted. The antibody affinities (Kd) were calculated by non-linear regression analysis using GraphPad Prism software.

Human folate receptor alpha-1 (FOLR1) on ovarian cancer cells, sequence (P15328 25-234): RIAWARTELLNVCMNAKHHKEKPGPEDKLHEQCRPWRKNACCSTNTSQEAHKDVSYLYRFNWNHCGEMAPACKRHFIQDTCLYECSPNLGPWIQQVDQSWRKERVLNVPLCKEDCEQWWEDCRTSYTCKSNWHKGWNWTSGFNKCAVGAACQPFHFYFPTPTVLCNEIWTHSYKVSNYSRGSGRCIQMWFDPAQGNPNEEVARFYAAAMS

B1: BaCa-1 (Bispecific-Anchored Cytotoxicity-Activator-1; farletuzumab IgG1 with a lexatumumab scFv at the C-terminus of the heavy chain) (bispecific antibody)
heavy: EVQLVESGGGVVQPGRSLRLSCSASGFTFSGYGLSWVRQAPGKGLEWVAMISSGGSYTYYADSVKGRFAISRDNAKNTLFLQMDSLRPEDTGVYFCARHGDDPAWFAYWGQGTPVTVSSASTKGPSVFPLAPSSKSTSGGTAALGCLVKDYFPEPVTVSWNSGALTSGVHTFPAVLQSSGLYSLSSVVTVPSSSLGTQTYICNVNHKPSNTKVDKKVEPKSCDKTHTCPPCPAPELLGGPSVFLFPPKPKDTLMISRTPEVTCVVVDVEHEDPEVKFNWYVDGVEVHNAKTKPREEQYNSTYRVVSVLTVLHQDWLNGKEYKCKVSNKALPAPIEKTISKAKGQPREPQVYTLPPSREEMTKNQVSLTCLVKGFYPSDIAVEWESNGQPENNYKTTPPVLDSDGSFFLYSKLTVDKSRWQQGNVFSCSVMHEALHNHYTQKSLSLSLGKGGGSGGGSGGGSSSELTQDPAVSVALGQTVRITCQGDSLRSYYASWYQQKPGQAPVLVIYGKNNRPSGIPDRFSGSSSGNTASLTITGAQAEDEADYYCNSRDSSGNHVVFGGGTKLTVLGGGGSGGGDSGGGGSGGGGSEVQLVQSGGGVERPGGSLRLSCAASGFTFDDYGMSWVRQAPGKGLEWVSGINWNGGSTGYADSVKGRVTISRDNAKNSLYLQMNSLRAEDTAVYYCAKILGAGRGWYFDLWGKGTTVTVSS
light: DIQLTQSPSSLSASVGDRVTITCSVSSSISSNNLHWYQQKPGKAPKPWIYGTSNLASGVPSRFSGSGSGTDYTFTISSLQPEDIATYYCQQWSSYPYMYTFGQGTKVEIKRTVAAPSVFIFPPSDEQLKSGTASVVCLLNNFYPREAKVQWKVDNALQSGNSQESVTEQDSKDSTYSLSSTLTLSKADYEKHKVYACEVTHQGLSSPVTKSFNRGEC
[1]
  cell killing, OVCAR-4 (high FOLR1) over Colo-205 (low FOLR1) cells: ~70 fold
[2]
  IC50 of cell viability, Colo-205 cells: 3.07 nM

B2: BaCa antibody labelled with IRDye 800CW (bispecific antibody, human IgG1, kappa)
heavy: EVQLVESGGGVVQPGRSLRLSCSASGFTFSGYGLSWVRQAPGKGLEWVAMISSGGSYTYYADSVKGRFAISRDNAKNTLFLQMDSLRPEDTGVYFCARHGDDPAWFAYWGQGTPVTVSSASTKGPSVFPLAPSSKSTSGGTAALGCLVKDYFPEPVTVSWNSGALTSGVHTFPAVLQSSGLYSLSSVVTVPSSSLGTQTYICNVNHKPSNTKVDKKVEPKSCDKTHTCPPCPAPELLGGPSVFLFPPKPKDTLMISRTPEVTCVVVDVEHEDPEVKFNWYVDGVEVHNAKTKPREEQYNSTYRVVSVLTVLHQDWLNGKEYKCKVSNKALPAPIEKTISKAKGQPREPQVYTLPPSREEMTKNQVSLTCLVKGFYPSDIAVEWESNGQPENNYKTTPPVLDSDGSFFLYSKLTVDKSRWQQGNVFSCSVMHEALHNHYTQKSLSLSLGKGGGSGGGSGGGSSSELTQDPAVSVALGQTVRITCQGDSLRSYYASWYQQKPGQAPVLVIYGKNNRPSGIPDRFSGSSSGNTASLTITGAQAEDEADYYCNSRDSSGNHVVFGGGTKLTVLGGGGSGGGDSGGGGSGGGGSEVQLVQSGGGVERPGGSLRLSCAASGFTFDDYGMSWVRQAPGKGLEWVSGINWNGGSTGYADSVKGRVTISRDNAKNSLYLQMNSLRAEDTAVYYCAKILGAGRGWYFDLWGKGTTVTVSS
light: DIQLTQSPSSLSASVGDRVTITCSVSSSISSNNLHWYQQKPGKAPKPWIYGTSNLASGVPSRFSGSGSGTDYTFTISSLQPEDIATYYCQQWSSYPYMYTFGQGTKVEIKRTVAAPSVFIFPPSDEQLKSGTASVVCLLNNFYPREAKVQWKVDNALQSGNSQESVTEQDSKDSTYSLSSTLTLSKADYEKHKVYACEVTHQGLSSPVTKSFNRGEC
modifications: IRDye 800CW NHS Ester label; sites not stated; IRDye 800CW NHS Ester label (0.04 mg dye per 1 mg of antibodies); sites not stated
notes: Lead BaCa (BaCa-1/HuBaCa), dye-conjugated; also called BaCa-IR800; IR800 labeled BaCa
[3]
  binding result: binds

From patent US20200283537A1 (UNIVERSITY OF VIRGINIA PATENT FOUNDATION, published 2020)
